Experimental data as given in US20130280734A1.

Molecular target: human GLP-1 receptor (GLP-1R) (human) (UniProt P43220)
Experiment: cell-based or functional assay
Details: scale: times higher concentration than the active forms of GLP-1

human GLP-1 receptor (GLP-1R) (human), sequence (P43220 24-463 limits assumed): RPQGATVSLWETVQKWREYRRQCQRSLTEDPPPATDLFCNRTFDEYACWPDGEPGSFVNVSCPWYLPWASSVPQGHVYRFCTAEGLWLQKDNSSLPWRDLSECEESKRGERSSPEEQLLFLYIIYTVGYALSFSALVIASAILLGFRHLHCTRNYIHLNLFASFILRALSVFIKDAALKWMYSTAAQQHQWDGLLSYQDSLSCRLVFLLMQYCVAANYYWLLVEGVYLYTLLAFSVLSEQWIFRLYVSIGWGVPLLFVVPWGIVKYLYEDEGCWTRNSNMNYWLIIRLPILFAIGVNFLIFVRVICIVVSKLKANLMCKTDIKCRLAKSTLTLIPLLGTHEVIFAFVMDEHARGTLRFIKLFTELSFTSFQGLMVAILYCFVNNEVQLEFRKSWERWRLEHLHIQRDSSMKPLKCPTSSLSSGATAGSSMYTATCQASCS

Row | reactivity of the kit (aequorin luminescence), concentration relative to the active forms of GLP-1 | Substance
1 | > 1e+06 | GLP-1 (9-36 amide) (from UniProt P01275 21-180) (peptide)
2 | 10000 | precursor GLP-1 (1-37) (from UniProt P01275 21-180) (peptide)
3 | > 1e+06 | GLP-2 (from UniProt P01275 146-178) (peptide)
4 | > 1e+06 | GIP (gastric inhibitory peptide or glucose-dependent insulinotropic polypeptide) (from UniProt P09681 52-93)
